Experimental data: article doi:10.1101/2021.06.06.447285 (bioRxiv, 2021)

Target: the molecule itself
Assay: native gel or EMSA + other: dynamic light scattering + other: negative-stain TEM

B1: Encapsulin from Thermotoga maritima (natural protein)
chain: MEFLKRSFAPLTEKQWQEIDNRAREIFKTQLYGRKFVDVEGPYGWEYAAHPLGEVEVLSDENEVVKWGLRKSLPLIELRATFTLDLWELDNLERGKPNVDLSSLEETVRKVAEFEDEVIFRGCEKSGVKGLLSFEERKIECGSTPKDLLEAIVRALSIFSKDGIEGPYTLVINTDRWINFLKEEAGHYPLEKRVEECLRGGKIITTPRIEDALVVSERGGDFKLILGQDLSIGYEDREKDAVRLFITETFTFQVVNPEALILLKF
binding result: binds
